Results on six molecules are retold here after publication PMC7360965 (The EMBO Journal, 2020).

Ends that are not written are not given here.

The target of this test is F-actin (filamentous actin), actin purified from chicken breast (Gallus gallus) (chicken (Gallus gallus), UniProt P68139 1-377). Description: co-sedimentation. The note with it: both partners purified.

B1: FAM-lifeAct-14 peptide (carboxy-terminal truncated version of lifeAct) (peptide)
peptide: MGVADLIKKFESIS
modifications: not fully specified (N-terminus); also: FAM label, position not given here
notes: source: synthetic peptide (custom synthesized, LifeTein, USA)
B1 registered a Kd of 1200 nM.

B2: Human UTRN-ABD (amino acids 1-261) H29A (domain or fragment)
chain: MAKYGEHEASPDNGQNEFSDIIKSRSDEANDVQKKTFTKWINARFSKSGKPPINDMFTDLKDGRKLLDLLEGLTGTSLPKERGSTRVHALNNVNRVLQVLHQNNVELVNIGGTDIVDGNHKLTLGLLWSIILHWQVKDVMKDVMSDLQQTNSEKILLSWVRQTTRPYSQVNVLNFTTSWTDGLAFNAVLHRHKPDLFSWDKVVKMSPIERLEHAFSKAQTYLGIEKLLDPEDVAVQLPDKKSIIMYLTSLFEVLPQQVTID
notes: source: E. coli Rosetta DE3, purified (His-Trap, Superdex-200)
As for B2, binding was put at a Kd of 2800 nM.

B3: Human UTRN-ABD (amino acids 1-261) I22D (domain or fragment)
chain: MAKYGEHEASPDNGQNEFSDIDKSRSDEHNDVQKKTFTKWINARFSKSGKPPINDMFTDLKDGRKLLDLLEGLTGTSLPKERGSTRVHALNNVNRVLQVLHQNNVELVNIGGTDIVDGNHKLTLGLLWSIILHWQVKDVMKDVMSDLQQTNSEKILLSWVRQTTRPYSQVNVLNFTTSWTDGLAFNAVLHRHKPDLFSWDKVVKMSPIERLEHAFSKAQTYLGIEKLLDPEDVAVQLPDKKSIIMYLTSLFEVLPQQVTID
notes: as for B2
In the case of B3, the Kd is 38000 nM.

B4: Human UTRN-ABD (amino acids 1-261) V87D (domain or fragment)
chain: MAKYGEHEASPDNGQNEFSDIIKSRSDEHNDVQKKTFTKWINARFSKSGKPPINDMFTDLKDGRKLLDLLEGLTGTSLPKERGSTRDHALNNVNRVLQVLHQNNVELVNIGGTDIVDGNHKLTLGLLWSIILHWQVKDVMKDVMSDLQQTNSEKILLSWVRQTTRPYSQVNVLNFTTSWTDGLAFNAVLHRHKPDLFSWDKVVKMSPIERLEHAFSKAQTYLGIEKLLDPEDVAVQLPDKKSIIMYLTSLFEVLPQQVTID
notes: also called UTRN-V87D; source: E. coli Rosetta DE3, purified (His-Trap, Superdex-200)
With B4, the Kd was greater than 100000 nM.

B5: Human UTRN-ABD (amino acids 1-261) N109A (domain or fragment)
chain: MAKYGEHEASPDNGQNEFSDIIKSRSDEHNDVQKKTFTKWINARFSKSGKPPINDMFTDLKDGRKLLDLLEGLTGTSLPKERGSTRVHALNNVNRVLQVLHQNNVELVAIGGTDIVDGNHKLTLGLLWSIILHWQVKDVMKDVMSDLQQTNSEKILLSWVRQTTRPYSQVNVLNFTTSWTDGLAFNAVLHRHKPDLFSWDKVVKMSPIERLEHAFSKAQTYLGIEKLLDPEDVAVQLPDKKSIIMYLTSLFEVLPQQVTID
notes: as for B2
For B5, the Kd worked out at 55000 nM.

B6: FAM-lifeAct-17 peptide (full-length lifeAct) (peptide)
peptide: MGVADLIKKFESISKEE
modifications: also: FAM label, position not given here
notes: also called lifeAct peptide; source: synthetic peptide (custom synthesized, LifeTein, USA)
B6 gave a Kd of 2200 nM.
